Laboratory results published in US20230021388A1 (VELOSBIO, published 2023).

target: T1, recombinant human ROR1 extracellular domain (human, UniProt Q01973 30-406); test: capture filter lift
T1 construct: biotinylated for the filter lifts; also called huROR1-ECD; human ROR1-ECD
Procedure: Subsequently, the filter was applied to the agar plates as described above. For detection of antigen binding, the filter was rinsed briefly in PBS, and transferred to biotinylated huROR1-ECD (ACROBiosystems, cat. #RO1-H522y) in 5% M-P.
Filters were incubated with 2.3 nM biotinylated ROR1 diluted in 5% M-P for 2 h at 25° C. with constant agitation, and washed 5 times, 2 minutes each wash, with constant agitation in PBS-T. Alternatively, filters were washed more rapidly using a squirt bottle and sintered glass funnel for vacuum filtration. The filters were transferred to 10 mL of High Sensitivity Neutravidin, HRP conjugate (Thermo Scientific, cat. #31030) diluted 5000-fold in 1% BSA in PBS and incubated for 1 h at 25° C. The filters were then washed 5 times in PBS-T and were developed with 1-Step Ultra TMB-Blotting.
All libraries were initially screened by capture lift to identify variants with improved binding. The capture lift assay, described in Example 1, enables the filter lift assay to discern variants that bind antigen more strongly based on the staining intensity. In order to determine the optimal concentration of antigen to use for screening, biotinylated huROR1-ECD was titrated on a capture lift of Ab1 Fab. Binding to Ab1 was clearly visible at antigen concentrations ≥23 nM and the signal was diminished at lower huROR1 concentrations. […] In addition, for more stringent screening, filters were probed with lower concentrations of antigen and/or development of the filter was terminated earlier, before the Ab1 staining was visible. […] In this example, approximately 250 library variants were plated. Twelve variants clearly bound huROR1 (FIG. 4, numbered).

T1 sequence (Q01973 30-406 limits assumed): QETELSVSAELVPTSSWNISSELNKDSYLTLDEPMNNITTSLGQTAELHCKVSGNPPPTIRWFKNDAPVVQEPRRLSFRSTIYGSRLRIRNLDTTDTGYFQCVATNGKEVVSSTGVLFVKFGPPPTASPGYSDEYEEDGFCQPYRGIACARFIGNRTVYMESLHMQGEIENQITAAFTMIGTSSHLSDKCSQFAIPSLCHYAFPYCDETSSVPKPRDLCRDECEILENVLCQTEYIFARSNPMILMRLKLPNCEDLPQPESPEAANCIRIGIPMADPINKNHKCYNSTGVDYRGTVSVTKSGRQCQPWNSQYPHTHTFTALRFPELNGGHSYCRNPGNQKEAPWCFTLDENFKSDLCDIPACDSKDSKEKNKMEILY

Binder	binding result
Ab1 Fab variant H1 A30I (Fab, V domains shown, Fab) VH: QVQLQESGPGLVKPSQTLSLTCTVSGYIFTAYNIHWVRQAPGQGLEWMGSFDPYDGGSSYNQKFKDRLTISKDTSKNQVVLTMTNMDPVDTATYYCARGWYYFDYWGHGTLVTVSS VL: DIVMTQTPLSLPVTPGEPASISCRASKSISKYLAWYQQKPGQAPRLLIYSGSTLQSGIPPRFSGSGYGTDFTLTINNIESEDAAYYFCQQHDESPYTFGEGTKVEIK	binds
Ab1 Fab variant H1 F31L (Fab, V domains shown, Fab) VH: QVQLQESGPGLVKPSQTLSLTCTVSGYALTAYNIHWVRQAPGQGLEWMGSFDPYDGGSSYNQKFKDRLTISKDTSKNQVVLTMTNMDPVDTATYYCARGWYYFDYWGHGTLVTVSS VL: DIVMTQTPLSLPVTPGEPASISCRASKSISKYLAWYQQKPGQAPRLLIYSGSTLQSGIPPRFSGSGYGTDFTLTINNIESEDAAYYFCQQHDESPYTFGEGTKVEIK	binds

The remaining lines, values ahead:

binding result	Binder
binds	Ab1 Fab variant H1 A30R (Fab, V domains shown, Fab) VH: QVQLQESGPGLVKPSQTLSLTCTVSGYRFTAYNIHWVRQAPGQGLEWMGSFDPYDGGSSYNQKFKDRLTISKDTSKNQVVLTMTNMDPVDTATYYCARGWYYFDYWGHGTLVTVSS VL: DIVMTQTPLSLPVTPGEPASISCRASKSISKYLAWYQQKPGQAPRLLIYSGSTLQSGIPPRFSGSGYGTDFTLTINNIESEDAAYYFCQQHDESPYTFGEGTKVEIK
binds	Ab1 Fab variant H1 F31W (Fab, V domains shown, Fab) VH: QVQLQESGPGLVKPSQTLSLTCTVSGYAWTAYNIHWVRQAPGQGLEWMGSFDPYDGGSSYNQKFKDRLTISKDTSKNQVVLTMTNMDPVDTATYYCARGWYYFDYWGHGTLVTVSS VL: DIVMTQTPLSLPVTPGEPASISCRASKSISKYLAWYQQKPGQAPRLLIYSGSTLQSGIPPRFSGSGYGTDFTLTINNIESEDAAYYFCQQHDESPYTFGEGTKVEIK

target: T1, recombinant human ROR1 extracellular …; test: ELISA, soluble Fab on coated huROR1-ECD
Procedure: The previously described filter lift assay provides a visual, qualitative assessment of antigen binding (Example 1). In order to assess the ROR1 binding activity of Ab1 Fab in a more quantitative fashion, an ELISA assay was developed. A 96-well Costar-3366 plate was coated with 50 μL/well of 1 μg/mL human ROR1-ECD (ACROBiosystems, cat. #RO1-H522y) in PBS overnight at 4° C. The plate was rinsed once with PBS-T and blocked with 100 μL/well of 5% M-P for 1 h at 25° C. Fab samples were serially diluted 3-fold using 5% M-P and 50 μL/well was incubated for 1 h at 25° C. The plate was washed three times with PBS-T and 50 μL/well anti-human kappa, and HRP conjugate (Southern Biotech, cat. #2060-05) diluted 10,000-fold in 5% M-P was added for 1 h at 25° C. In certain assays (extended wash format), the plate was placed in large volumes (up to 1 L) of PBS-T and incubated, with mixing, for 2-5 h prior to the addition of anti-human kappa, HRP conjugate. The plate was washed three times with PBS-T, and developed with 50 μL/well 1-Step Ultra TMB-ELISA (Thermo Scientific, cat. #34028). The reaction was terminated by the addition of 2 N H2504 and the A450 was determined using a Spectramax plate reader.

Binder	Kd [nM]
Ab1 Fab variant L1 S32I (Fab, V domains shown, Fab) VH: QVQLQESGPGLVKPSQTLSLTCTVSGYAFTAYNIHWVRQAPGQGLEWMGSFDPYDGGSSYNQKFKDRLTISKDTSKNQVVLTMTNMDPVDTATYYCARGWYYFDYWGHGTLVTVSS VL: DIVMTQTPLSLPVTPGEPASISCRASKSIIKYLAWYQQKPGQAPRLLIYSGSTLQSGIPPRFSGSGYGTDFTLTINNIESEDAAYYFCQQHDESPYTFGEGTKVEIK	1.9
Ab1 Fab variant L2 L70H (Fab, V domains shown, Fab; also called SGSTHQS) VH: QVQLQESGPGLVKPSQTLSLTCTVSGYAFTAYNIHWVRQAPGQGLEWMGSFDPYDGGSSYNQKFKDRLTISKDTSKNQVVLTMTNMDPVDTATYYCARGWYYFDYWGHGTLVTVSS VL: DIVMTQTPLSLPVTPGEPASISCRASKSISKYLAWYQQKPGQAPRLLIYSGSTHQSGIPPRFSGSGYGTDFTLTINNIESEDAAYYFCQQHDESPYTFGEGTKVEIK	2.3
Ab1 Fab variant L2 L70K (Fab, V domains shown, Fab; also called SGSTKQS) VH: QVQLQESGPGLVKPSQTLSLTCTVSGYAFTAYNIHWVRQAPGQGLEWMGSFDPYDGGSSYNQKFKDRLTISKDTSKNQVVLTMTNMDPVDTATYYCARGWYYFDYWGHGTLVTVSS VL: DIVMTQTPLSLPVTPGEPASISCRASKSISKYLAWYQQKPGQAPRLLIYSGSTKQSGIPPRFSGSGYGTDFTLTINNIESEDAAYYFCQQHDESPYTFGEGTKVEIK	1.5
Ab1 Fab variant L2 Q71V (Fab, V domains shown, Fab; also called SGSTLVS) VH: QVQLQESGPGLVKPSQTLSLTCTVSGYAFTAYNIHWVRQAPGQGLEWMGSFDPYDGGSSYNQKFKDRLTISKDTSKNQVVLTMTNMDPVDTATYYCARGWYYFDYWGHGTLVTVSS VL: DIVMTQTPLSLPVTPGEPASISCRASKSISKYLAWYQQKPGQAPRLLIYSGSTLVSGIPPRFSGSGYGTDFTLTINNIESEDAAYYFCQQHDESPYTFGEGTKVEIK	1.3
Ab1 Fab variant L2 T69R (Fab, V domains shown, Fab; also called SGSRLQS) VH: QVQLQESGPGLVKPSQTLSLTCTVSGYAFTAYNIHWVRQAPGQGLEWMGSFDPYDGGSSYNQKFKDRLTISKDTSKNQVVLTMTNMDPVDTATYYCARGWYYFDYWGHGTLVTVSS VL: DIVMTQTPLSLPVTPGEPASISCRASKSISKYLAWYQQKPGQAPRLLIYSGSRLQSGIPPRFSGSGYGTDFTLTINNIESEDAAYYFCQQHDESPYTFGEGTKVEIK	2.1
Ab1 Fab variant H1 I41V (Fab, V domains shown) VH: QVQLQESGPGLVKPSQTLSLTCTVSGYAFTAYNVHWVRQAPGQGLEWMGSFDPYDGGSSYNQKFKDRLTISKDTSKNQVVLTMTNMDPVDTATYYCARGWYYFDYWGHGTLVTVSS VL: DIVMTQTPLSLPVTPGEPASISCRASKSISKYLAWYQQKPGQAPRLLIYSGSTLQSGIPPRFSGSGYGTDFTLTINNIESEDAAYYFCQQHDESPYTFGEGTKVEIK	3.5

The remaining lines, values ahead:

Kd [nM]	Binder
16	Ab1 Fab variant L1 S30P (Fab, V domains shown, Fab) VH: QVQLQESGPGLVKPSQTLSLTCTVSGYAFTAYNIHWVRQAPGQGLEWMGSFDPYDGGSSYNQKFKDRLTISKDTSKNQVVLTMTNMDPVDTATYYCARGWYYFDYWGHGTLVTVSS VL: DIVMTQTPLSLPVTPGEPASISCRASKPISKYLAWYQQKPGQAPRLLIYSGSTLQSGIPPRFSGSGYGTDFTLTINNIESEDAAYYFCQQHDESPYTFGEGTKVEIK
1.1	Ab1 Fab variant L1 S32A (Fab, V domains shown, Fab) VH: QVQLQESGPGLVKPSQTLSLTCTVSGYAFTAYNIHWVRQAPGQGLEWMGSFDPYDGGSSYNQKFKDRLTISKDTSKNQVVLTMTNMDPVDTATYYCARGWYYFDYWGHGTLVTVSS VL: DIVMTQTPLSLPVTPGEPASISCRASKSIAKYLAWYQQKPGQAPRLLIYSGSTLQSGIPPRFSGSGYGTDFTLTINNIESEDAAYYFCQQHDESPYTFGEGTKVEIK
1.1	Ab1 Fab variant L2 Q71T (Fab, V domains shown, Fab; also called SGSTLTS) VH: QVQLQESGPGLVKPSQTLSLTCTVSGYAFTAYNIHWVRQAPGQGLEWMGSFDPYDGGSSYNQKFKDRLTISKDTSKNQVVLTMTNMDPVDTATYYCARGWYYFDYWGHGTLVTVSS VL: DIVMTQTPLSLPVTPGEPASISCRASKSISKYLAWYQQKPGQAPRLLIYSGSTLTSGIPPRFSGSGYGTDFTLTINNIESEDAAYYFCQQHDESPYTFGEGTKVEIK
1.6	Ab1 Fab variant L2 S68G (Fab, V domains shown, Fab; also called SGGTLQS) VH: QVQLQESGPGLVKPSQTLSLTCTVSGYAFTAYNIHWVRQAPGQGLEWMGSFDPYDGGSSYNQKFKDRLTISKDTSKNQVVLTMTNMDPVDTATYYCARGWYYFDYWGHGTLVTVSS VL: DIVMTQTPLSLPVTPGEPASISCRASKSISKYLAWYQQKPGQAPRLLIYSGGTLQSGIPPRFSGSGYGTDFTLTINNIESEDAAYYFCQQHDESPYTFGEGTKVEIK
11	Ab1 Fab variant L2 S68R (Fab, V domains shown, Fab; also called SGRTLQS) VH: QVQLQESGPGLVKPSQTLSLTCTVSGYAFTAYNIHWVRQAPGQGLEWMGSFDPYDGGSSYNQKFKDRLTISKDTSKNQVVLTMTNMDPVDTATYYCARGWYYFDYWGHGTLVTVSS VL: DIVMTQTPLSLPVTPGEPASISCRASKSISKYLAWYQQKPGQAPRLLIYSGRTLQSGIPPRFSGSGYGTDFTLTINNIESEDAAYYFCQQHDESPYTFGEGTKVEIK
1.5	Ab1 Fab variant L2 T69H (Fab, V domains shown, Fab; also called SGSHLQS) VH: QVQLQESGPGLVKPSQTLSLTCTVSGYAFTAYNIHWVRQAPGQGLEWMGSFDPYDGGSSYNQKFKDRLTISKDTSKNQVVLTMTNMDPVDTATYYCARGWYYFDYWGHGTLVTVSS VL: DIVMTQTPLSLPVTPGEPASISCRASKSISKYLAWYQQKPGQAPRLLIYSGSHLQSGIPPRFSGSGYGTDFTLTINNIESEDAAYYFCQQHDESPYTFGEGTKVEIK
43	Ab1 Fab variant H1 N40R (Fab, V domains shown) VH: QVQLQESGPGLVKPSQTLSLTCTVSGYAFTAYRIHWVRQAPGQGLEWMGSFDPYDGGSSYNQKFKDRLTISKDTSKNQVVLTMTNMDPVDTATYYCARGWYYFDYWGHGTLVTVSS VL: DIVMTQTPLSLPVTPGEPASISCRASKSISKYLAWYQQKPGQAPRLLIYSGSTLQSGIPPRFSGSGYGTDFTLTINNIESEDAAYYFCQQHDESPYTFGEGTKVEIK
3.6	Ab1 Fab variant H2 S57A (Fab, V domains shown) VH: QVQLQESGPGLVKPSQTLSLTCTVSGYAFTAYNIHWVRQAPGQGLEWMGAFDPYDGGSSYNQKFKDRLTISKDTSKNQVVLTMTNMDPVDTATYYCARGWYYFDYWGHGTLVTVSS VL: DIVMTQTPLSLPVTPGEPASISCRASKSISKYLAWYQQKPGQAPRLLIYSGSTLQSGIPPRFSGSGYGTDFTLTINNIESEDAAYYFCQQHDESPYTFGEGTKVEIK
